Reference: patent US9395368B2, “Methods, agents and peptides for inducing an immune response to matrix metalloproteinase-2 expressing tumors” (New York University, priority 2010, dated 2016)

Test system: IL-12p35 and IL-12p40 in DCs
Experiment: Intracellular staining of IL-12p35 and IL-12p40 chains in DCs
Assay type: cell-based, human
Experimental: Immature DCs were incubated with MMP-2 (0.5 μg/mL or 5 μg/mL) and poly(I:C)-matured 1 h later. IL-12 levels were measured 16 h later. (A) Results are represented as a percentage of IL-12p70 levels, measured by CBA, produced when DCs were incubated with poly(I:C) only (n=11). (B) For intracellular staining of IL-12p35 and IL-12p40 chains, Brefeldin A was added 4 h after poly(I:C) activation and cells were stained after an additional 12 h incubation. Numbers in the upper right quadrants are the percentages of each population for a representative donor (n=3). (C,D) Immature DCs were incubated with MMP-2 for 1 h (5 μg/mL) before poly(I:C) maturation. Intracellular staining of phosphorylated (Y701) STAT1 (P-STAT1) was performed 3 h later. A representative donor (C) and results for all 3 donors (D) are shown. […] (E) Immature DCs were incubated with MMP-2 and poly(I:C)-matured 1 h later. IFNβ levels were measured by ELISA 16 h later. Results are represented as a percentage of IFNβ levels produced when DCs were incubated with poly(I:C) only (n=9). (F,G) 10^6DCs/lane were treated with 0.1 μg MMP-2 or controls. Poly(I:C) was added 1 h later. IFNAR1 protein expression was detected the next day by Western blot analysis using a rabbit monoclonal antibody. A representative donor (F) and results for all 7 donors (G) are shown. (H) The rhIFNAR1 (5 μg; ≈110 kD) was incubated overnight with 0.3 μg MMP-2 before performing Western blot analysis for IFNAR1. The second band (around 90 kD) and the third band (25 kD) very likely correspond to either a degraded form of the protein still recognized by the antibody or a contaminant present in the commercial protein preparation and non-specifically recognized by the antibody. MMP-2 enzymatic activity was controlled (FIG. 13C-D). […]
Intracellular staining T-bet and GATA-3 expression was measured on resting T cells. […] Cytokine production by T cells was also assessed by intracellular staining T cells were stimulated with 2 μM overlapping peptides. […]

B1: active MMP-2: Purified human MMP-2 (mixture of the proenzyme (50%) and the active form (50%)) purchased from Biomol (protein, listed as Homo sapiens)
chain: MEALMARGALTGPLRALCLLGCLLSHAAAAPSPIIKFPGDVAPKTDKELAVQYLNTFYGCPKESCNLFVLKDTLKKMQKFFGLPQTGDLDQNTIETMRKPRCGNPDVANYNFFPRKPKWDKNQITYRIIGYTPDLDPETVDDAFARAFQVWSDVTPLRFSRIHDGEADIMINFGRWEHGDGYPFDGKDGLLAHAFAPGTGVGGDSHFDDDELWTLGEGQVVRVKYGNADGEYCKFPFLFNGKEYNSCTDTGRSDGFLWCSTTYNFEKDGKYGFCPHEALFTMGGNAEGQPCKFPFRFQGTSYDSCTTEGRTDGYRWCGTTEDYDRDKKYGFCPETAMSTVGGNSEGAPCVFPFTFLGNKYESCTSAGRSDGKMWCATTANYDDDRKWGFCPDQGYSLFLVAAHEFGHAMGLEHSQDPGALMAPIYTYTKNFRLSQDDIKGIQELYGASPDIDLGTGPTPTLGPVTPEICKQDIVFDGIAQIRGEIFFFKDRFIWRTVTPRDKPMGPLLVATFWPELPEKIDAVYEAPQEEKAVFFAGNEYWIYSASTLERGYPKPLTSLGLPPDVQRVDAAFNWSKNKKTYIFAGDKFWRYNEVKKKMDPGFPKLIADAWNAIPDNLDAVVDLQGGGHSYFFKGAYYLKLENQSLKSVKFGSIKSDWLGC
For B1, the IL-12p40 production was “not affected overall”, the “IL-12p35 production, mean inhibition” value (pre-exposure of DCs) was 65% and the “DCs expressing the IL-12p35 subunit” value (pre-incubated before poly(I:C) activation, poly(I:C) only 4.33%±0.94) was 1.5%±0.22.
